In patent publication US5670616:

Molecular target: FLAG GG 9-mer (SEQ ID NO:20)

completeness of proteolytic cleavage (relative mobility on SDS gels): 100%
Substance: Trypsin (type XI DPCC treated) (enzyme)
